Among the data in the RNAGym collection of RNA variant scans (doi:10.7554/elife.80360) are self-cleavage values, retold here.

B1: HDV Ribozyme (parent)
chain: GGCCGGCAUGGUCCCAGCCUCCUCGCUGGCGCCGGCUGGGCAACAUUCCGAGGGGACCGUCCCCUCGGUAAUGGCGAAUGGGACCCA

The variants in the series derive from B1. Briefly: self-cleavage, relative activity (ratio to wild type); higher = more cleavage; co-transcriptional.
Turning to A42G C44U, the self-cleavage was found to be 0.639. Consider C41A G55A, for which the self-cleavage came to 0.937. Regarding A42U C49U, the self-cleavage is 0.502. Regarding A42C G53C, the self-cleavage was found to be 0.297. A42C G53U: the self-cleavage was 0.231. For A42C G81C, the self-cleavage is 0.0978.

For the variant C41U C48U, the self-cleavage stood at 1.02. For the variant A42U A56G, the self-cleavage came to 0.306.

For C41A C49U, the self-cleavage came out at 0.91.

On to A42U A87G, for which the self-cleavage was found to be 0.389. As for A42G A71C, the self-cleavage came out at 0.151. Consider A42C U72C, for which the self-cleavage was 0.107. With C41G G68A, the self-cleavage was 0.45.

As for C41G G68C, the self-cleavage amounted to 0.483. As to C41G C63A, the self-cleavage is 0.791.

Turning to A42C G76U, the self-cleavage turned out to be 0.734. Then C41A U69A, with 0.831; and C41A C86U, with 0.904; and C41U A87U, with 1. On to A42G U46C, for which the self-cleavage was found to be 0.369. In the case of A42G C48U, the self-cleavage was found to be 0.525.

For the variant C41A G73C, the self-cleavage is 0.554. A42G G53A: the self-cleavage worked out at 0.496.

Turning to A42G G53U, the self-cleavage stood at 0.817. For A42G C64A, the self-cleavage worked out at 0.302. With A42G C64G, the self-cleavage amounted to 0.332. With C41G A56C, the self-cleavage amounted to 0.942. Then A42C C57A, with 0.373.

As for C41U C58U, the self-cleavage came to 1.17.

With C41G A42G, the self-cleavage was 0.332.

For the variant C41G A42C, the self-cleavage amounted to 0.353. Take C41G G73C: the self-cleavage came out at 0.877. With C41G G73A, the self-cleavage was determined as 0.712. Then A42C A78G, with 0.317. Consider A42C C75U, for which the self-cleavage amounted to 0.148. For A42C C75G, the self-cleavage amounted to 0.0852. Then C41G C64G, with 0.536; and A42G A51G, with 0.571. Then C41U C84U, with 0.765; and C41U C62U, with 0.92; and A42G G76A, with 0.631. Then A42C U69C, with 0.399. On to A42C U69G, for which the self-cleavage turned out to be 0.246. On to A42C C64G, for which the self-cleavage was 0.277. As for C41A G81C, the self-cleavage was 0.169. Then C41U G54A, with 0.958; and A42G C61U, with 0.656. In the case of A42G C61G, the self-cleavage is 0.831. A42C G52C: the self-cleavage came to 0.359.

For the variant C41G A77G, the self-cleavage was determined as 0.268. Turning to A42G A77U, the self-cleavage was found to be 0. On to C41U C75G, for which the self-cleavage was 0.208. Consider C41G U69C, for which the self-cleavage was 0.772. Turning to C41G U69A, the self-cleavage was determined as 0.609. For C41A U65G, the self-cleavage was found to be 0.95.

With A42G G59U, the self-cleavage came out at 0.608.

For C41U A71C, the self-cleavage worked out at 0.644.

Take C41U A71G: the self-cleavage came out at 1.06. Regarding C41G C61A, the self-cleavage was 0.928. As for A42U C48G, the self-cleavage worked out at 0.646.

Consider A42G C58A, for which the self-cleavage is 0.655.

As to A42C C62A, the self-cleavage was determined as 0.365. As to C41U G52U, the self-cleavage was found to be 0.868. To A42G G50A belongs 0.446. As to A42U C44G, the self-cleavage stood at 0.464. Turning to C41U G55U, the self-cleavage came to 1. On to C41A G59U, for which the self-cleavage was found to be 1.11. C41U U65G: the self-cleavage is 0.976. Consider C41U U65C, for which the self-cleavage worked out at 0.954. With C41A C84A, the self-cleavage worked out at 0.435. Consider C41U G76U, for which the self-cleavage worked out at 0.897. Take C41U G76C: the self-cleavage stood at 0.861. To A42G C84U belongs 0.525.

For A42G C84A, the self-cleavage came to 0.554.

Turning to C41G G59U, the self-cleavage was 0.969. Then A42U A45U, with 0.554; and C41U A83G, with 0.712. To C41G C44A belongs 0.192. Regarding C41G G54C, the self-cleavage is 0.849.

As for A42C C48G, the self-cleavage worked out at 0.229. For A42C A56C, the self-cleavage worked out at 0.356. A42C A56U: the self-cleavage is 0.332.

A42G C62G: the self-cleavage was found to be 0.469. For C41G C66U, the self-cleavage was determined as 0.683. With C41A G52U, the self-cleavage came out at 0.772. Take C41G A83C: the self-cleavage is 0.123. A42G U79C: the self-cleavage amounted to 0.0386. Take A42G U79G: the self-cleavage was found to be 0.359. As to A42C G50A, the self-cleavage turned out to be 0.325. Turning to A42G C57G, the self-cleavage is 0.453.

As for A42C A45U, the self-cleavage was 0.306.

As to C41G U72G, the self-cleavage worked out at 0.795. To A42G G80U belongs 0.095; to A42G A78G, 0; to A42C G59C, 0.397. In the case of C41A C61U, the self-cleavage was 0.76. Consider C41U A51U, for which the self-cleavage is 0.932. Consider C41U A51C, for which the self-cleavage was determined as 0.916. With C41U C63A, the self-cleavage is 0.983. Take A42G G52U: the self-cleavage amounted to 0.501. With C41U G80U, the self-cleavage stood at 0.174.

Consider C41U G80C, for which the self-cleavage worked out at 0.188. As for C41A C63G, the self-cleavage worked out at 0.623. For C41A C63U, the self-cleavage is 1.04.

On to A42C U65G, for which the self-cleavage turned out to be 0.831. Consider A42C U65A, for which the self-cleavage was determined as 0.155. As for A42C G73A, the self-cleavage was found to be 0.245. As to A42G G68C, the self-cleavage amounted to 0.271.

C41A G53C: the self-cleavage came out at 0.848. As to C41A G53U, the self-cleavage was 0.969. C41G G55C: the self-cleavage is 0.723. As for C41U A70G, the self-cleavage came to 0.876. As to C41A C85U, the self-cleavage came out at 0.849. With A42C G54A, the self-cleavage was 0.271. For A42C C85A, the self-cleavage worked out at 0.18. Consider A42G G55A, for which the self-cleavage was found to be 0.485. In the case of A42G G55C, the self-cleavage is 0.675. Then A42C C44G, with 0.217; and C41U G68C, with 0.636.

For C41U G68A, the self-cleavage came out at 0.743. Consider A42C C58U, for which the self-cleavage was 0.322. To C41U C57G belongs 1.09; to C41G U46G, 0.231; to A42G G81U, 0.0346. Regarding C41G G52A, the self-cleavage stood at 0.562. Then C41G G52U, with 0.554; and A42G G73C, with 0. To C41G G67A belongs 0.456. Then C41A G76C, with 1.06; and A42G C75A, with 0.0554. For the variant C41U C61A, the self-cleavage was found to be 1.12.

Consider C41A C57U, for which the self-cleavage was 0.909. Turning to A42C U46C, the self-cleavage was found to be 0.214. With C41A G74C, the self-cleavage was found to be 0.366. As to A42C A83U, the self-cleavage came out at 0.122. As for A42C A83G, the self-cleavage came to 0.129.

In the case of A42G U69A, the self-cleavage is 0.554.

As for A42G U69G, the self-cleavage worked out at 0.554. Regarding C41G A87G, the self-cleavage amounted to 0.772.

As to A42C G55C, the self-cleavage is 0.243. As for A42C C84U, the self-cleavage was 0.224.

Consider A42C C84G, for which the self-cleavage came to 0. Then A42U A77G, with 0.464; and A42U A77U, with 0.0739. As to C41U U46G, the self-cleavage came out at 1.02. For the variant C41A A83C, the self-cleavage came to 0.312.

Turning to A42G U47A, the self-cleavage amounted to 0.391.

Consider C41U C66G, for which the self-cleavage turned out to be 0.926. Regarding C41G G53A, the self-cleavage turned out to be 0.485. For the variant C41U U60A, the self-cleavage was determined as 0.815.

For C41G G82A, the self-cleavage was found to be 0.0811. In the case of C41G C57G, the self-cleavage was determined as 0.804.

As to C41A G54A, the self-cleavage was 1.01. As to C41A G54C, the self-cleavage came to 1.08. As for C41U U79A, the self-cleavage was found to be 0.98. C41U U79G: the self-cleavage came out at 0.369. As for C41G A71G, the self-cleavage was found to be 0.554. Turning to A42G G67U, the self-cleavage stood at 0.565.

Consider C41A U60G, for which the self-cleavage was determined as 0.522. As for C41A U60A, the self-cleavage was found to be 0.979.

As to C41A C62A, the self-cleavage was determined as 0.77.

Regarding C41G A70G, the self-cleavage stood at 0.929. To C41G A70C belongs 0.475; to A42U A43G, 0.201. C41U C49A: the self-cleavage was 0.563.

C41U C49G: the self-cleavage was determined as 0.317.

With A42G U65C, the self-cleavage worked out at 0.643.
